From article PMC3782296 (Journal of molecular biology, 2011)

Biological target: the molecule itself
Experiment: cross-linking

B1: wild-type human Tom40A lacking amino acid residues 1 to 82 (hTom40AΔ1-82) (domain or fragment, UniProt O96008 83-361, looked up)
chain: FEECHRKCKELFPIQMEGVKLTVNKGLSNHFQVNHTVALSTIGESNYHFGVTYVGTKQLSPTEAFPVLVGDMDNSGSLNAQVIHQLGPGLRSKMAIQTQQSKFVNWQVDGEYRGSDFTAAVTLGNPDVLVGSGILVAHYLQSITPCLALGGELVYHRRPGEEGTVMSLAGKYTLNNWLATVTLGQAGMHATYYHKASDQLQVGVEFEASTRMQDTSVSFGYQLDLPKANLLFKGSVDSNWIVGATLEKKLPPLPLTLALGAFLNHRKNKFQCGFGLTIG
stoichiometry N: 2
